Several values for one entry are separate records, joined by “and”; a condition that tells them apart may be missing. Equal values may be shown once.
Columns and labels:
[1] = tested on: Glucagon; assay: Steady-state kinetics of peptide cleavage, fluorescence polarisation; format: biochemical; details: substrate Glucagon
Procedure: (§1) For detailed kinetic characterisation of peptide cleavage by NEP, a similar assay to that above was used with modifications based on a published method. Peptides were synthesised by Bachem using 9-fluorenylmethyloxycarbonyl solid-phase peptide synthesis and were labelled with a N-terminal 5(6)FAM via a ε-aminocaproic acid linker and a C-terminal biotin via a lysine linker (Table S1). Purified peptides were supplied as trifluoroacetate salts with a purity ≥95%. The assay was performed in a 96-well microtitre plate and contained 50 mM HEPES (pH 7.4), 100 mM NaCl, 0.05% (w/v) BSA (Buffer A), 1–200 µM peptide substrate and 1–500 nM NEP protein. Reactions were incubated at 37°C before being stopped at various time points between 2 and 360 min by transferring 5 µL aliquots to 245 µL Buffer A containing 2 mM 1,10-phenanethroline (Sigma) and 2 µM avidin (Invitrogen). For peptide substrates containing disulphide bonds, 1 mM tris(2-carboxyethyl)phosphine (Thermo Scientific) was added to the stop solution. The fluorescence polarisation of the resulting solution was measured on a Victor plate reader and the amount of substrate cleaved was determined with reference to substrate-only controls with and without avidin. Initial rates were obtained by linear regression of the linear regions of time courses. Enzyme velocity was plotted as a function of substrate concentration and the Michaelis-Menten equation was used to fit the data, giving the parameters kcat and KM.

[2] = tested on: GLP-1; assay: as above; format: biochemical; details: substrate GLP-1
Procedure: as §1

[3] = tested on: Substance P; assay: as above; format: biochemical; details: substrate Substance P
Procedure: as §1

[4] = tested on: Bradykinin; assay: as above; format: biochemical
Procedure: as §1

[5] = tested on: Nociceptin; assay: as above; format: biochemical; details: substrate Nociceptin
Procedure: as §1

[6] = tested on: Somatostatin 14; assay: as above; format: biochemical; details: substrate Somatostatin 14
Procedure: as §1

[7] = tested on: Neurokinin A; assay: as above; format: biochemical; details: substrate Neurokinin A
Procedure: as §1

[8] = tested on: γ-endorphin; assay: as above; format: biochemical; details: substrate γ-endorphin
Procedure: as §1

[9] = tested on: α-endorphin; assay: as above; format: biochemical; details: substrate α-endorphin
Procedure: as §1

[10] = tested on: ANP; assay: as above; format: biochemical; details: substrate ANP
Procedure: as §1

[11] = tested on: Neurotensin; assay: as above; format: biochemical
Procedure: as §1

[12] = tested on: Angiotensin; assay: as above; format: biochemical
Procedure: as §1

[13] = tested on: Arg-vasopressin; assay: as above; format: biochemical; details: substrate Arg-vasopressin
Procedure: as §1

[14] = tested on: GRP; assay: as above; format: biochemical; details: substrate GRP
Procedure: as §1

[15] = tested on: Aβ1–40; assay: as above; format: biochemical; details: for increase in kcat/KM (catalytic efficiency) on Aβ1–40 over wild-type NEP: relative to wild-type NEP
Procedure: as §1

[16] = tested on: Somatostatin 28; assay: as above; format: biochemical; details: substrate Somatostatin 28
Procedure: as §1

[17] = tested on: Neurokinin B; assay: as above; format: biochemical; details: substrate Neurokinin B
Procedure: as §1

[18] = tested on: Aβ1–40; assay: Endpoint degradation assay with ELISA read-out; format: biochemical, human; details: 1 hour at room temperature; Aβ40 ELISA
Procedure: (§2) Supplementary file pone.0104001.s001.tif: Figure S1 Degradation of Aβ1–40 and Aβ1–42 by NEP wild-type and NEPv. Measurement of the degredation of Aβ1–40 (A) and Aβ1–42 (B) was performed by incubating peptide and either wild-type NEP (▪) or NEPv (Δ) for 1 hour at room temperature. The reaction was stopped by the addition of 1.10-phenanthroline to a final concentration of 10 µM. 50 µl (Aβ40 analysis) or 100 µl (Aβ42 analysis) of the reaction mix was transferred to an ELISA plate. Aβ40 and Aβ42 concentrations after degradation were determined using Invitrogen human Aβ40 ELISA kit (Invitrogen, California, US), and Innotest β-amyloid RUO (1–42) ELISA (Innogenetics, Gent, Belgium). […] (TIF) Click here for additional data file.

[19] = target: T1, Aβ1–42 (Homo sapiens, UniProt P05067); assay: Endpoint degradation assay with ELISA read-out; format: biochemical; details: 1 hour at room temperature; Aβ42 ELISA
T1 construct: Aβ 1-42^a
T1 sequence (P05067 672-713): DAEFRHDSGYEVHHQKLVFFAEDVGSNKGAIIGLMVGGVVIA
Procedure: as §2

[20] = ratio of wild-type NEP kcat/KM to that of the mutant
[21] = substrate Bradykinin, 37°C, pH 7.4
[22] = substrate Neurotensin, 37°C, pH 7.4
[23] = substrate Angiotensin, 37°C, pH 7.4
[24] = substrate Aβ 1–40, 37°C, pH 7.4

B1: NEPv: lead variant at round 2, human NEP ectodomain with the two mutations G399V and G714K (protein, UniProt P08473 52-750, looked up, variant G399V G714K)
extracellular domain: YDDGICKSSDCIKSAARLIQNMDATTEPCTDFFKYACGGWLKRNVIPETSSRYGNFDILRDELEVVLKDVLQEPKTEDIVAVQKAKALYRSCINESAIDSRGGEPLLKLLPDIYGWPVATENWEQKYGASWTAEKAIAQLNSKYGKKVLINLFVGTDDKNSVNHVIHIDQPRLGLPSRDYYECTGIYKEACTAYVDFMISVARLIRQEERLPIDENQLALEMNKVMELEKEIANATAKPEDRNDPMLLYNKMTLAQIQNNFSLEINGKPFSWLNFTNEIMSTVNISITNEEDVVVYAPEYLTKLKPILTKYSARDLQNLMSWRFIMDLVSSLSRTYKESRNAFRKALYVTTSETATWRRCANYVNGNMENAVGRLYVEAAFAGESKHVVEDLIAQIREVFIQTLDDLTWMDAETKKRAEEKALAIKERIGYPDDIVSNDNKLNNEYLELNYKEDEYFENIIQNLKFSQSKQLKKLREKVDKDEWISGAAVVNAFYSSGRNQIVFPAGILQPPFFSAQQSNSLNYGGIGMVIGHEITHGFDDNGRNFNKDGDLVDWWTQQSASNFKEQSQCMVYQYGNFSWDLAGGQHLNGINTLGENIADNGGLGQAYRAYQNYIKKNGEEKLLPGLDLNHKQLFFLNFAQVWCGTYRPEYAVNSIKTDVHSPKNFRIIGTLQNSAEFSEAFHCRKNSYMNPEKKCRVW
modifications: extracellular domain
For B1, the Km ([1]; 37°C, pH 7.4) was 30 ± 6 µM, the kcat ([1]; 37°C, pH 7.4) was 1.2 ± 0.1 s⁻¹ and the “Fold change in kcat/KM” value [1, 20] was 4.2. For the same molecule, the Km ([2]; 37°C, pH 7.4) was 23 ± 4 µM, the kcat ([2]; 37°C, pH 7.4) was 0.89 ± 0.07 s⁻¹ and the “Fold change in kcat/KM” value [2, 20] was 3.6. For the same molecule, the Km ([3]; 37°C, pH 7.4) was 92 ± 10 µM, the kcat ([3]; 37°C, pH 7.4) was 12 ± 0.9 s⁻¹ and the “Fold change in kcat/KM” value [3, 20] was 8.7. The “specificity switch in favor of cleavage of Aβ” value ([4]; Aβ1–40 versus bradykinin) was 6.4×10^4, the Km [4, 21] was 37 ± 10 µM and the kcat [4, 21] was 0.0055 ± 0.001 s⁻¹. The Km ([5]; 37°C, pH 7.4) was 63 ± 7 µM, the kcat ([5]; 37°C, pH 7.4) was 14 ± 0.9 s⁻¹ and the “Fold change in kcat/KM” value [5, 20] was 2.6. The Km ([6]; 37°C, pH 7.4) was 32 ± 3 µM, the kcat ([6]; 37°C, pH 7.4) was 9.1 ± 0.4 s⁻¹ and the “Fold change in kcat/KM” value [6, 20] was 15. For the same molecule, the Km ([7]; 37°C, pH 7.4) was 34 ± 7 µM, the kcat ([7]; 37°C, pH 7.4) was 1.1 ± 0.1 s⁻¹ and the “Fold change in kcat/KM” value [7, 20] was 52. For the same molecule, the Km ([8]; 37°C, pH 7.4) was 4.4 ± 0.6 µM, the kcat ([8]; 37°C, pH 7.4) was 0.16 ± 0.006 s⁻¹ and the “Fold change in kcat/KM” value [8, 20] was 10. For the same molecule, the Km ([9]; 37°C, pH 7.4) was 6.5 ± 1 µM, the kcat ([9]; 37°C, pH 7.4) was 0.089 ± 0.003 s⁻¹ and the “Fold change in kcat/KM” value [9, 20] was 26. The Km ([10]; 37°C, pH 7.4) was 33 ± 6 µM, the kcat ([10]; 37°C, pH 7.4) was 0.56 ± 0.05 s⁻¹ and the “Fold change in kcat/KM” value [10, 20] was 53. For the same molecule, the Km [11, 22] was 16 ± 3 µM, the kcat [11, 22] was 0.039 ± 0.002 s⁻¹ and the “Fold change in kcat/KM” value ([11]; substrate Neurotensin, ratio of wild-type NEP kcat/KM to that of the mutant) was 320. The “reduction in kcat relative to wild-type NEP” value ([11]; substrate neurotensin) was 340 fold, the Km [12, 23] was 13 ± 2 µM and the kcat [12, 23] was 0.14 ± 0.007 s⁻¹. For the same molecule, the “Fold change in kcat/KM” value ([12]; substrate Angiotensin, ratio of wild-type NEP kcat/KM to that of the mutant) was 87, the “reduction in kcat relative to wild-type NEP” value ([12]; substrate angiotensin) was 60 fold and the Km ([13]; 37°C, pH 7.4) was 22 ± 3 µM. For the same molecule, the kcat ([13]; 37°C, pH 7.4) was 0.017 ± 0.001 s⁻¹, the “Fold change in kcat/KM” value [13, 20] was 510 and the “reduction in kcat relative to wild-type NEP” value [14] was 67 fold. For the same molecule, the Km ([14]; 37°C, pH 7.4) was 120 ± 20 µM, the kcat ([14]; 37°C, pH 7.4) was 0.39 ± 0.05 s⁻¹ and the “Fold change in kcat/KM” value [14, 20] was 52. The “increase in kcat relative to wild-type NEP” value ([15]; substrate Aβ1–40) was about 2 fold, the Km [15, 24] was 14 ± 1 µM and the kcat [15, 24] was 2.1 ± 0.1 s⁻¹. The “Fold change in kcat/KM” value ([15]; substrate Aβ 1–40, ratio of wild-type NEP kcat/KM to that of the mutant) was 0.055, the “increase in kcat/KM (catalytic efficiency) on Aβ1–40 over wild-type NEP” value ([15]; substrate Aβ1–40) was 18.5 fold and 20 fold and the “increase in kcat/KM (catalytic efficiency) on Aβ1–40 over wild-type NEP” value ([15]; substrate Aβ1–40, listed as Neprilysin variant G399V/G714K) was “approximately 20 fold”. The Km ([16]; 37°C, pH 7.4) was 47 ± 20 µM, the kcat ([16]; 37°C, pH 7.4) was 0.086 ± 0.02 s⁻¹ and the “Fold change in kcat/KM” value [16, 20] was 87. The Km ([17]; 37°C, pH 7.4) was 22 ± 3 µM, the kcat ([17]; 37°C, pH 7.4) was 0.42 ± 0.03 s⁻¹ and the “Fold change in kcat/KM” value [17, 20] was 48. It also gave an EC50 [18] of 0.0213 µM and an EC50 [19] of 0.0195 µM.
